The results in this text go back to US20210060068A1 (Stanford University, published 2021).

First the molecules themselves.
T1: wild-type mouse IL-2Rβ (mouse, UniProt P16297 27-240, limits assumed)
T1 construct: Recombinant protein coated on the SPR chip or used to stain yeast; also called wild-type IL-2Rβ; mIL-2Rβ
T1 sequence: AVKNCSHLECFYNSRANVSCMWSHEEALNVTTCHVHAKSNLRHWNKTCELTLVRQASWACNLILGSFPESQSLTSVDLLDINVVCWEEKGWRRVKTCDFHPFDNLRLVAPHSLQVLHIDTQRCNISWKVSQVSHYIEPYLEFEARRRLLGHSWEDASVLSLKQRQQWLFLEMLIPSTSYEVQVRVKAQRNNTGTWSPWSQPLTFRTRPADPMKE

B1: ortho human IL-2Rβ H133D Y134F mutant tetramers (receptor)
chain: AVNGTSQFTCFYNSRANISCVWSQDGALQDTSCQVHAWPDRRRWNQTCELLPVSQASWACNLILGAPDSQKLTTVDIVTLRVLCREGVRWRVMAIQDFKPFENLRLMAPISLQVVHVETHRCNISWEISQASDFFERHLEFEARTLSPGHTWEEAPLLTLKQKQEWICLETLTPDTQYEFQVRVKPLQGEFTTWSPWSQPLAFRTKPAALGKDT
notes: Tetramers used to stain yeast; also called ortho-hIL-2Rβ; ortho hIL-2Rβ
B2: wild-type mouse IL-2 (ligand)
chain: APTSSSTSSSTAEAQQQQQQQQQQQQHLEQLLMDLQELLSRMENYRNLKLPRMLTFKFYLPKQATELKDLQCLEDELGPLRHVLDLTQSKSFQLEDAENFISNIRVTVVKLKGSDNTFECQFDDESATVVDFLRRWIAFCQSIISTSPQ
notes: Soluble protein flowed over the SPR chip; also called wt mIL-2; wild-type IL-2
B3: orthogonal mouse IL-2Rβ H134D Y135F (receptor)
chain: T1 sequence with H134D, Y135F
notes: Recombinant protein coated on the SPR chip or used to stain yeast; also called orthoIL-2Rβ; mIL-2Rβ H134D Y135F

Test [1] concerns the target T2, yeast-displayed wild-type human IL-2 (human, UniProt P60568 21-153).
T2 construct: also called wild-type IL-2; hIL-2
The test is described as follows: FACS, yeast-displayed hIL-2 stained with receptor tetramers. As to the method: We introduced the H133D Y134F mutations that were used to create the mouse orthol L-2Rβ into human IL-2Rβ, as these residues are highly conserved between mouse and human.
Yeast display of IL-2. […] Transformed yeast were passaged once in SDCAA and yeast cultures in log phase were pelleted and resuspended at an OD600 of 1.0 in SGCAA induction media containing 10% SDCAA and cultured for 24 hr at 20° C.
On the technique in general: Flow cytometry measures light scatter and fluorescence of single cells or particles in a stream.

For the next test, the target named is T1, wild-type mouse IL-2Rβ. Put plainly: SPR, soluble IL-2 over a receptor-coated chip, 1:1 binding model. As to the method: Binding was determined by surface plasmon resonance (SPR) and curves were fitted using a 1:1 binding model.
A general note: In SPR one partner is held on a chip, and binding of the other changes the refractive index at the surface.

The test “wild-type mouse IL-2” has as its target B2. The test is described as follows: surface plasmon resonance.

Substitutions are numbered along the chain they refer to. Numbers in names are those of the source.

T2 sequence (P60568 21-153): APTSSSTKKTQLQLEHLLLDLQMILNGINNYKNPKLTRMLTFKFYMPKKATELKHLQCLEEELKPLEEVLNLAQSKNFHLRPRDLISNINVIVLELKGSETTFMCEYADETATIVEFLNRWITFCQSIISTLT

With B1, the binding result in test [1] is on record as “no binding”.
B2: the binding result in the test with wild-type mouse IL-2Rβ was “binds”.
As to B3, in the test with wild-type mouse IL-2, the binding result is recorded as “no binding”.
